Consider three molecules from patent US20230077100A1 (published 2023).

Test [1] addresses T1, HPV16 E6 peptide on HLA-A*02:01 (human).
T1 peptide: TIHDIILECV
The experiment in a line: peptide titration on APCs, E:T 1:1, overnight, intracellular IFN-γ in CD4+ TCR-T cells; full-length, on cells.

Test [2] deals with T1, HPV16 E6 peptide on HLA-A*02:01. The test can be described thus: peptide titration on APCs, E:T 1:1, overnight, intracellular IFN-γ in CD8+ TCR-T cells; full-length, on cells.
For test [3] the target is unchanged. The test can be described thus: peptide titration on T2 cells, E:T 1:1, overnight, intracellular IFN-γ; full-length, on cells.

B1: E203 TCR (TCR, V domains shown)
Valpha: LAKTTQPISMDSYEGQEVNITCSHNNIATNDYITWYQQFPSQGPRFIIQGYKTKVTNEVASLFIPADRKSSTLSLPRVSLSDTAVYYCLALSMDSSYKLIFGSGTRLLVRP
Vbeta: DAGVIQSPRHEVTEMGQEVTLRCKPISGHDYLFWYRQTMMRGLELLIYFNNNVPIDDSGMPEDRFSAKMPNASFSTLKIQPSEPRDSAVYFCASSLAQRSAPEAFFGQGTRLTVV
B1: the EC50 of peptide in test [1] worked out at 0.0176 µg/mL; in test [2], 0.00104 µg/mL.

B2: E205 TCR (TCR, V domains shown)
Valpha: TQLLEQSPQFLSIQEGENLTVYCNSSSVFSSLQWYRQEPGEGPVLLVTVVTGGEVKKLKRLTFQFGDARKDSSLHITAAQPGDTGLYLCAGVSARLMFGDGTQLVVKP
Vbeta: SAVISQKPSRDICQRGTSLTIQCQVDSQVTMMFWYRQQPGQSLTLIATANQGSEATYESGFVIDKFPISRPNLTFSTLTVSNMSPEDSSIYLCSAVGGPKVPGAEAFFGQGTRLTVV
As to B2, the EC50 of peptide turned out to be 0.0104 µg/mL in test [1] and 0.000917 µg/mL in test [2].

B3: E202 TCR (TCR, V domains shown)
Valpha: AQTVTQSQPEMSVQEAETVTLSCTYDTSESDYYLFWYKQPPSRQMILVIRQEAYKQQNATENRFSVNFQKAAKSFSLKISDSQLGDAAMYFCAYRDSRGSTLGRLYFGRGTQLTVWP
Vbeta: DVKVTQSSRYLVKRTGEKVFLECVQDMDHENMFWYRQDPGLGLRLIYFSYDVKMKEKGDIPEGYSVSREKKERFSLILESASTNQTSMYLCASSLWGRKNTEAFFGQGTRLTVV
B3: the EC50 of peptide in test [3] amounted to 0.045 µg/mL.
